Data: US20190135928A1 (Bristol-Myers Squibb, published 2019)

What was measured:
[1] = biological target: T1, TL1A expressed on transfected CHO cells (Homo sapiens (Human), UniProt O95150 1-251); test: flow cytometry, titration of the antibody on TL1A CHO cells, PE anti-human IgG (Fc specific) detection
T1 construct: also called TL1A CHO cells; TL1A expressing CHOs cells
T1 sequence: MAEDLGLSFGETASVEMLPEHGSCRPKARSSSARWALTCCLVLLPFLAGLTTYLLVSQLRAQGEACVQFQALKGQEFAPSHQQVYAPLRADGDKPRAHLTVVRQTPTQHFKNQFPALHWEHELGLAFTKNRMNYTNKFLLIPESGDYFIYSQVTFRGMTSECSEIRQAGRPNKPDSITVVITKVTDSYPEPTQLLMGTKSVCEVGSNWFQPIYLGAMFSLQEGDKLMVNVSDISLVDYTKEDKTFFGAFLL
Method: (§1) Dilutions of TL1A antibody were incubated with 10⁵ TL1A CHO cells in 100 ul FACS buffer for 1 hr. Cells were washed two times with FACS buffer and antibody binding was detected by staining with PE anti human […] antibody and evaluated by FACS.
(§2) FACS assays were used to verify that antibodies of the disclosure are binding to native TL1A expressed on cells. Briefly, dilutions of antibody in PBS 1% BSA plus 0.5% sodium azide (FACS buffer) were incubated with transfected CHO cells expressing TL1A (10⁵ cells) for 30-60 minutes at 4 C. Cells were washed twice by centrifugation, aspiration of supernatant, and addition of fresh FACS buffer. Antibody binding to TL1A on cells was detected by incubating the cells in PE (Phycoerythrin) labeled goat anti-human IgG (Fc specific) antibody for 30 min at 4C, washing the cells 2× as above, and analyzing by FACS (FIG. 1).

Hu-TL1A-His = biological target: T2, Hu-TL1A-His (Homo sapiens, UniProt O95150); test: SPR (Biacore), 10A4.F7 captured on a protein G surface, Hu-TL1A-His as analyte at 250, 200, 150, 100 and 50n
T2 construct: recombinant, His-tagged; also called Hu-TL1A-His antigen (Lot#50182AS151)
T2 sequence (ligand chain, looked up): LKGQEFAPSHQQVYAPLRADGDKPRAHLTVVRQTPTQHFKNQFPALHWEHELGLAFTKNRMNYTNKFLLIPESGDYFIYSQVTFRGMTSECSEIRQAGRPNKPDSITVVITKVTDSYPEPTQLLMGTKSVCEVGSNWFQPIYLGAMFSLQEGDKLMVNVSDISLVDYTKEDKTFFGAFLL
Method: Protein G chip (CM5) was made by coating it […] using acetate buffer (pH2.9). 10A4.F7 mab (7.5 ug/mL, 12 uL) was captured at 10 uL/min flow rate on Protein G surface. Hu-TL1A-His antigen (Lot#50182AS151) at multiple concentrations (250, 200, 150, 100 & 50n) were flowed over captured mab for 5 min at 25 ul/min and allowed to dissociate for 7.5 min. Protein G surface was regenerated with 10 uL of 50 mM NaOH and 5 uL of 25 mM HCL at 100 uL/min flow rate. Data was analyzed by using Biaevaluation 3.1. (FIG. 3)

[2] = biological target: T3, soluble TL1A-SH6 protein (his tagged) (Homo sapiens (Human), UniProt O95150 57-251, limits assumed); test: FACS competition: TL1A SH6 at 200 ng/ml pre-incubated with dilutions of 10A4.F7, then added to hDR3 CHO cells, PE anti 6xHis detection
T3 construct: also called TL1A SH6 antigen; not shown: His tag (detected with anti 6xHis antibody)
T3 sequence: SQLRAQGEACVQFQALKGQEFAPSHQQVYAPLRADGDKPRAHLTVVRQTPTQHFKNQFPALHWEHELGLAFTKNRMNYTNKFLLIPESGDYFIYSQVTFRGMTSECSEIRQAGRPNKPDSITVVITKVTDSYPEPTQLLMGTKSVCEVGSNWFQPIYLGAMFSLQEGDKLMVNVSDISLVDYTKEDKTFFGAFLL
Method: (§3) TL1A SH6 at 200 ng/ml (50 ul) was incubated with dilutions of 10A4.F7 (50 ul) antibody or control IgG1 antibody (all reagents in FACS buffer). The mixture was incubated for 30 minutes and then added to 10⁵ hDR3 CHO cells in 100 ul of FACS buffer and incubated for 1 hr. Cells were washed twice in FACS buffer and TL1A binding to DR3 CHO cells was detected by staining cells with PE anti 6×His antibody (R&D systems) and evaluated by FACS.
(§4) Identification of anti-TL1A antibodies that block TL1A binding to DR3 were also done by FACS by using soluble TL1A-SH6 protein (his tagged) binding to hDR3 expressed on CHO cells (DR3 CHO). Anti-TL1A or control antibodies were incubated with TL1A SH6 antigen at 0.1-0.5 ug/ml for 30 minutes in FACS buffer and then hDR3 CHO cells were added to the antibody TL1A mix and incubated for 30 minutes. Cells were washed and TL1A binding to hDR3 CHO cells was detected with PE anti-His antibody followed by FACS. Blocking antibodies prevent TL1A SH6 from binding to hDR3 CHO cells (FIG. 2).

[3] = biological target: T1, TL1A expressed on transfected CHO cells; test: FACS titration on TL1A CHO cells, detection with PE anti-human IgG (Fc specific); the box prints no unit, the axis is IgG (nM)
Method: as §1, §2

[4] = biological target: T3, soluble TL1A-SH6 protein (his tagged); test: FACS, inhibition of the binding of TL1A SH6 (200 ng/ml) to hDR3 CHO cells, detection with PE anti-6xHis; the box prints no unit, the axis is Log nM
Method: as §3, §4

B1: monoclonal antibody 10A4.F7 (antibody, V domains shown)
VH: QLQLQESGPGLVKPSETLSLTCTVSGGSISSRSYYWGWIRQPPGKGLEWIGSIYYNGRTYYNPSLKSRVTISVDTSKNQFSLKLSSVTAADTAVYYCAREDYGDYGAFDIWGQGTMVTVSS
VL: AIQLTQSPSSLSASVGDRVTITCRASQGISSALAWYQQKPGKAPKLLIYDASSLESGVPSRFSGSGSGTDFTLTISSLQPEDFATYYCQQFNSYPLTFGGGTKVEIK
notes: Hybridoma subclone of parental clone 10A4 (KM mouse, human IgG kappa); also called TL1A 2596.10A4.F7
EC50 [1]: 0.4 nM | Kd (Hu-TL1A-His): 0.38 nM | koff (Hu-TL1A-His): 2.9e-05 s⁻¹ | kon (Hu-TL1A-His): 75000 M⁻¹ s⁻¹ | IC50 [2]: 0.524 nM | EC50 [3]: 0.407 nM | IC50 [4]: 0.525 nM
